In paper PMC7772352 one finds percentage of GFP fluorescence signal in DF-1 cells transfected with RCASBPGDFX0602 G196A-EGFP (recombinant virus; wild type 89.65%) and percentage of GFP fluorescence signal in DF-1 cells transfected with RCASBP GDFX0602 R198H-EGFP (recombinant virus; wild type 89.65%) data, which are given here for two substances.

This assay deals with Tva-HA-Fc.

As to “soluble gp85-flag G196A (natural protein)”, the percentage of GFP fluorescence signal in DF-1 cells transfected with RCASBPGDFX0602 G196A-EGFP (recombinant virus; wild type 89.65%) came to 0.24%.

For “soluble gp85-flag R198H (natural protein)”, the percentage of GFP fluorescence signal in DF-1 cells transfected with RCASBP GDFX0602 R198H-EGFP (recombinant virus; wild type 89.65%) was found to be 0.49%.
